# In the supplement of paper PMC11865577:
# Columns and labels:
# Assay in all cases: pull-down binding Z-score (relative to library population); higher = stronger binding
# [1] = system: TO-3-N3 (biotin conjugate); conditions: RNA library: Library-2
# Outline: (§1)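 Binding is given as a Z-score against the library mean and standard deviation, calculated after removing the beads-only signal and averaging barcoded replicate probes without their highest and lowest values. Cy5- or Cy3-end-labelled RNA library (1 μg) was heat-folded in phosphate/NaCl/KCl buffer and incubated 60 min at 25 °C with streptavidin beads bearing 100 pmol of biotin-conjugated small molecule. After three washes, RNA eluted in hot SDS was hybridised to a DNA barcode microarray for 20 h at 55.5 °C.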
# [2] = system: TO-3-N3-2 (biotin conjugate); conditions: RNA library: Library-2
# Outline: as §1
# [3] = system: G-clamp-N3 (biotin conjugate); conditions: RNA library: Library-1 (pre-miRNA loops + repeats)
# Outline: as §1
# [4] = system: TO-N3-2 (biotin conjugate); conditions: RNA library: Library-2
# Outline: as §1
# TO-N3 (biotin conjugate) = conditions: RNA library: Library-2
# Outline: as §1
Sequence,pull-down binding Z-score [1],pull-down binding Z-score [2],pull-down binding Z-score [3],pull-down binding Z-score [4],pull-down binding Z-score (TO-N3 (biotin conjugate))
CUACUAGUUUGUAGUAGUUCGUAGCAG [hsa-mir-3919],-0.438,0.295,0.56,0.637,-0.197
CUACUCAAGGCUAG [hsa-mir-4266],1.32,0.132,-0.163,-0.0352,1.35
CUAGUAUGUCUCAUCCCCUACUAG [hsa-mir-151a],-0.144,-0.201,0.0263,0.072,-0.343
CUAUCCUUCCCUUGGAAAAUGAUCUGAG [hsa-mir-4770],-0.188,-0.189,-0.925,-5.12e-05,-0.245
CUAUGGCCCCCCUCCUCUCUGAAAGCAAGGCCACUUG [hsa-mir-8081],0.3,0.282,-1.13,0.982,0.738
CUAUUCAGAAAUGUGGCCUGUGAUUAG [hsa-mir-1295a],-0.00311,0.231,0.22,0.169,-0.0755
CUCAACUCUUGGUCCUCUGAG [hsa-mir-3165],-0.385,0.0789,-0.955,0.545,-0.316
CUCAAGUCCUCUAUUUCUUUGAA [hsa-mir-7978],-0.712,-0.54,-1.16,0.0517,-0.484
CUCAAUGUAGUCUUGUAAGGAACAGGUUGAAG [hsa-mir-595],-0.166,0.34,0.711,0.908,0.268
CUCACAUGGAGUAAAAUAUGAU [hsa-mir-3134],0.744,0.194,-1.71,0.206,0.711
CUCACCAUAGUGGUGGA [hsa-mir-1288],-0.33,-0.646,-1.2,-0.588,-0.412
CUCACGUGUGCCUGCCUGUGAG [hsa-mir-339],-1.01,-0.521,-0.747,1.55,-0.555
CUCACUGCAGAAUUAUUUUGAG [hsa-mir-4524a],-0.62,-0.267,0.934,-0.99,-0.869
CUCAGAGGGCUGAAGUGGUUGUGGGGAGGGGCUUCUGGG [hsa-mir-4296],4.7,4.91,1.39,4.01,4.83
CUCAGCAUGUUGAGCCCUGUCUCUGGGGAGCUGAC [hsa-mir-6505],0.254,-0.142,1.48,0.878,0.597
CUCAGCCUGGAAAAAGCUGAG [hsa-mir-4765],-0.454,-0.575,0.49,-0.646,-0.672
CUCAGGAAUUGGAUAAGCUUUUCUGAG [hsa-mir-5194],-0.212,-0.272,0.541,-0.323,-0.399
CUCAGGACAGCGGGUGUCAGCUUGCCUGAC [hsa-mir-6859-1_6859-3_6859-2_6859-4],0.665,0.241,-0.377,1.4,1.12
CUCAUGAUAUGUUUGCCCCAUCAGCGUGUCACGAG [hsa-mir-3616],-0.104,-0.139,0.251,0.199,-0.0894

Sequence,pull-down binding Z-score [1],pull-down binding Z-score [2],pull-down binding Z-score [3],pull-down binding Z-score [4],pull-down binding Z-score (TO-N3 (biotin conjugate))
CUCAUGUAAACUAAAACAUGAU [hsa-mir-508],0.0647,-0.244,-1.91,-0.891,-0.229
CUCAUUGUUGAAUGGAAUGAGAU [hsa-mir-3145],-0.527,-0.319,2.58,0.348,-0.571
CUCCGGGUUGGGG [hsa-mir-1469],-0.552,-0.476,0.177,-0.557,-0.718
CUCCUAUUGAAAAUGAACAGGAG [hsa-mir-873],-0.0676,-0.299,-0.315,-0.875,-0.285
CUCCUCCGCUGCCGCCGGGAGAG [hsa-mir-4785],-0.584,-0.327,0.0193,0.0312,-0.794
CUCGCUGGGAGGUGUGCUAUCGUCUUCCCCGGGAG [hsa-mir-3689d-1],-0.0907,-0.13,0.293,0.734,0.154
CUCGCUGGGAGGUGUGCUAUCGUCUUCCCUGGGAG [hsa-mir-3689d-2],0.157,-0.246,-0.351,0.541,0.338
CUCGGCCAUCCUCCGUCUGCCCAG [hsa-mir-935],-0.0566,0.13,-1.08,1.16,0.473
CUCGGGAGGCUGAG [hsa-mir-4419a],-0.569,-0.459,1.91,0.147,-0.51
CUCGGGUGGAUAAGUCUGAUCUGAG [hsa-mir-3663],-0.724,-0.631,1.2,0.26,-0.554
CUCGUCUCUACAAAAAAUUGAGACAGG [hsa-mir-4512],0.00896,-0.15,-0.338,-0.632,-0.152
CUCUAGACUCUAUUAUAGUUUCCUGAG [hsa-mir-558],-0.335,-0.582,-1.03,-0.545,-0.751
CUCUCCUCCAGCUCAGCUGGUCAGGAGAG [hsa-mir-3160-1],1.09,-0.0211,-0.259,-0.0869,0.959
CUCUCCUGACCAGCUGAGCUGGAGGAGAG [hsa-mir-3160-2],-0.0412,-0.397,1.35,-1.08,-0.48
CUCUCGUGUCCACUAGCAGGCAGGUUUUCUGACACAGG [hsa-mir-604],-0.343,0.313,0.743,0.566,-0.0789
CUCUCUGUUGCUCUGAAGGAG [hsa-mir-346],-0.271,-0.318,1.39,0.295,-0.183
CUCUGAUGUAAUUAGGU [hsa-mir-563],-0.504,-0.321,-1.2,-0.397,-0.642
CUCUGCUGUGUAAAUAGUUCUGAGUAGU [hsa-mir-454],-0.17,0.0557,-0.424,0.574,0.186
